{
  "source": "patent US20140363427A1",
  "key": {"[1]": {"target": "F protein of RSV B-wash (strain 18537) (respiratory syncytial virus B, strain 18537) (UniProt P13843)", "experiment": "cell-based or functional assay"}, "[2]": {"target": "F protein of RSV B-1 (respiratory syncytial virus B-1) (UniProt O36634)", "experiment": "cell-based or functional assay"}, "[3]": {"target": "native RSV F protein from the RSV A2 strain (Respiratory Syncytial Virus strain A2) (UniProt P03420)", "experiment": "cell-based or functional assay"}, "[4]": {"target": "F protein of the Motavizumab MARM (K272E) (Respiratory Syncytial Virus strain A2, escape mutant) (UniProt P03420)", "experiment": "cell-based or functional assay"}, "[5]": {"target": "F protein of the 58C5 MARM (N63K, M115K, E295G) (Respiratory Syncytial Virus strain A2, escape mutant) (UniProt P03420)", "experiment": "cell-based or functional assay"}, "[6]": {"target": "F protein of the parental RSV A2 strain (Example 11) (Respiratory Syncytial Virus strain A2) (UniProt P03420)", "experiment": "cell-based or functional assay"}, "[7]": {"target": "RSV F A2 mutant V278M (human RSV, A2 strain) (UniProt P03420)", "experiment": "mutant F in HEK 293 cells"}, "[8]": {"target": "RSV F A2 mutant F351S (human RSV, A2 strain) (UniProt P03420)", "experiment": "mutant F in HEK 293 cells"}, "[9]": {"target": "RSV F A2 mutant Y86C (human RSV, A2 strain) (UniProt P03420)", "experiment": "mutant F in HEK 293 cells"}, "[10]": {"target": "RSV F A2 mutant N371D (human RSV, A2 strain) (UniProt P03420)", "experiment": "mutant F in HEK 293 cells"}, "[11]": {"target": "RSV F A2 mutant E463A (human RSV, A2 strain) (UniProt P03420)", "experiment": "mutant F in HEK 293 cells"}, "[12]": {"target": "RSV F A2 mutant E82G (human RSV, A2 strain) (UniProt P03420)", "experiment": "mutant F in HEK 293 cells"}, "[13]": {"target": "RSV F A2 mutant S403A (human RSV, A2 strain) (UniProt P03420)", "experiment": "mutant F in HEK 293 cells"}},
  "data": [
    {"substance": "Fab 58c5", "values": [
      {"measurement": "Average Plaque Count, RSV B/wash, Fab at 0.003 µg/ml (26.3 at 0 µg/ml)", "setting": "[1]", "value": 23.3},
      {"measurement": "Average Plaque Count, RSV B/wash, Fab at 0.016 µg/ml (26.3 at 0 µg/ml)", "setting": "[1]", "value": 16.3},
      {"measurement": "Average Plaque Count, RSV B/wash, Fab at 0.08 µg/ml (26.3 at 0 µg/ml)", "setting": "[1]", "value": 5},
      {"measurement": "Average Plaque Count, RSV B/wash, Fab at 0.4 µg/ml (26.3 at 0 µg/ml)", "setting": "[1]", "value": 0},
      {"measurement": "Average Plaque Count, RSV B/wash, Fab at 2 µg/ml (26.3 at 0 µg/ml)", "setting": "[1]", "value": 0.7},
      {"measurement": "Average Plaque Count, RSV B/wash, Fab at 10 µg/ml (26.3 at 0 µg/ml)", "setting": "[1]", "value": 1.3},
      {"measurement": "ED50, plaque reduction, RSV B/wash", "setting": "[1]", "value": 500, "unit": "pM"},
      {"measurement": "ED50, plaque reduction, RSV B/wash (mass concentration)", "setting": "[1]", "value": 0.025, "unit": "µg/mL"},
      {"measurement": "Average Plaque Count, RSV B-1, Fab at 0.003 µg/ml (12.3 at 0 µg/ml)", "setting": "[2]", "value": 11.7},
      {"measurement": "Average Plaque Count, RSV B-1, Fab at 0.016 µg/ml (12.3 at 0 µg/ml)", "setting": "[2]", "value": 8.7},
      {"measurement": "Average Plaque Count, RSV B-1, Fab at 0.08 µg/ml (12.3 at 0 µg/ml)", "setting": "[2]", "value": 4.7},
      {"measurement": "Average Plaque Count, RSV B-1, Fab at 0.4 µg/ml (12.3 at 0 µg/ml)", "setting": "[2]", "value": 0},
      {"measurement": "Average Plaque Count, RSV B-1, Fab at 2 µg/ml (12.3 at 0 µg/ml)", "setting": "[2]", "value": 0},
      {"measurement": "Average Plaque Count, RSV B-1, Fab at 10 µg/ml (12.3 at 0 µg/ml)", "setting": "[2]", "value": 0.3},
      {"measurement": "ED50, plaque reduction, RSV B-1", "setting": "[2]", "value": 840, "unit": "pM"},
      {"measurement": "ED50, plaque reduction, RSV B-1 (mass concentration)", "setting": "[2]", "value": 0.042, "unit": "µg/mL"}
    ]},
    {"substance": "IgG form of 58c5 (antibody)", "values": [
      {"measurement": "ED50, plaque reduction, RSV A2", "setting": "[3]", "value": 133, "unit": "pM"},
      {"measurement": "ED50, plaque reduction, Motavizumab MARM", "setting": "[4]", "value": 173, "unit": "pM"},
      {"measurement": "ED50, plaque reduction, 58C5 MARM", "setting": "[5]", "value": "> 66700", "unit": "pM"},
      {"measurement": "ED50, plaque reduction, RSV A2 parental", "setting": "[6]", "value": 115, "unit": "pM"},
      {"measurement": "ED50, plaque reduction, RSV B/wash", "setting": "[1]", "value": 193, "unit": "pM"},
      {"measurement": "ED50, plaque reduction, RSV B-1", "setting": "[2]", "value": 280, "unit": "pM"},
      {"measurement": "immunoluminescence Mean", "setting": "[7]", "value": 99.8},
      {"measurement": "immunoluminescence S1", "setting": "[7]", "value": 122},
      {"measurement": "immunoluminescence S2", "setting": "[7]", "value": 97.6},
      {"measurement": "immunoluminescence S3", "setting": "[7]", "value": 79.6},
      {"measurement": "immunoluminescence Mean", "setting": "[8]", "value": 7.4},
      {"measurement": "immunoluminescence S1", "setting": "[8]", "value": 2.9},
      {"measurement": "immunoluminescence S3", "setting": "[8]", "value": 6.1},
      {"measurement": "immunoluminescence S4", "setting": "[8]", "value": 14.7}
    ]},
    {"substance": "Motavizumab IgG (antibody)", "values": [
      {"measurement": "immunoluminescence Mean", "setting": "[9]", "value": 24.8},
      {"measurement": "immunoluminescence Mean", "setting": "[10]", "value": 26.9},
      {"measurement": "immunoluminescence Mean", "setting": "[11]", "value": 101},
      {"measurement": "immunoluminescence Mean", "setting": "[12]", "value": 42.1},
      {"measurement": "immunoluminescence Mean", "setting": "[13]", "value": 28}
    ]}
  ]
}
